# Assay results published in article PMC4995097, “Talin-KANK1 interaction controls the recruitment of cortical microtubule stabilizing complexes to focal adhesions” (eLife, 2016).
# B1: BODIPY-labeled KANK1(30–60)C peptide (peptide)
# peptide: PYFVETPYGFQLDLDFVKYVDDIQKGNTIKKC
# modifications: BODIPY TMR dye coupled via the carboxy terminal cysteine
# notes: KANK1, human, residues 30-60; added C-terminal cysteine; also called KANK1(30–60) peptide; source: synthetic peptide (Biomatik), dye-coupled, gel filtered
# B2: BODIPY-labeled KANK2(31–61)C peptide (peptide)
# peptide: PYSVETPYGYRLDLDFLKYVDDIEKGHTLRRC
# modifications: BODIPY TMR dye coupled via the carboxy terminal cysteine
# notes: KANK2, residues 31-61; added C-terminal cysteine; source: synthetic peptide (Biomatik), dye-coupled, gel filtered
# Tests used:
# talin1 R7-R8 S1641E = target: T1, talin1 R7-R8 S1641E (mouse, UniProt P26039 1357-1653, S1641E); assay: fluorescence polarisation; fixed 0.5 μM BODIPY-labelled KANK peptide, increasing talin R7-R8, PBS, 100 μl, room temperature, triplicate; one site total and non-specific binding model; details: both partners purified
# T1 construct: talin1, mouse, R7-R8 (limits as the wild type: 1357-1653) with S1641E; also called S1641E mutant; source: gene synthesized by GeneArt
# T1 sequence (P26039 1357-1653 S1641E): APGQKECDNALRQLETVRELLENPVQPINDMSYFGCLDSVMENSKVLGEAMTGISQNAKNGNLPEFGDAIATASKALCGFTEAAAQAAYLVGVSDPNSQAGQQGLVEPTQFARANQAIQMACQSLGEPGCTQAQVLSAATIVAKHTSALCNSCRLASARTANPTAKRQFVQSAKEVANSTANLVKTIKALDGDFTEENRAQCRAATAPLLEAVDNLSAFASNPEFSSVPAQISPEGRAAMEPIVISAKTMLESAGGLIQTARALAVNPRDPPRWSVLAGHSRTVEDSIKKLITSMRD
# [1] = target: T2, talin1 R7-R8 (murine talin1 residues 1357–1653) (mouse, UniProt P26039 1357-1653); assay: as above; details: both partners purified
# T2 construct: talin1, mouse, residues 1357-1653 (R7-R8); 15N-labelled for NMR, unlabelled for fluorescence polarisation; Vector pet151-TOPO; also called talin R7-R8; wild type R7-R8
# T2 sequence (P26039 1357-1653): as the sequence (P26039 1357-1653 S1641E) above, with E285S counted along it
Binder,binding result (talin1 R7-R8 S1641E),binding result [1]
B1,binds,binds
B2,–,binds
